Consider 1 molecule from patent US20190153111A1 (Novartis, published 2019).

Several values for one entry are separate records, joined by “and”; a condition that tells them apart may be missing. Identical values can stand only once.

What all share (assay): cell-based or functional assay
The target in test [1] is rhesus monkey CD40 on cells (rhesus, UniProt F6SNI1 21-278).
Test [2] concerns the target cynomolgus monkey CD40 on cells (cynomolgus, UniProt G7PG38 21-278).
In test [3] the target is T1, human CD40 on cells (human, UniProt P25942 21-277).
T1 sequence (P25942 21-277 limits assumed): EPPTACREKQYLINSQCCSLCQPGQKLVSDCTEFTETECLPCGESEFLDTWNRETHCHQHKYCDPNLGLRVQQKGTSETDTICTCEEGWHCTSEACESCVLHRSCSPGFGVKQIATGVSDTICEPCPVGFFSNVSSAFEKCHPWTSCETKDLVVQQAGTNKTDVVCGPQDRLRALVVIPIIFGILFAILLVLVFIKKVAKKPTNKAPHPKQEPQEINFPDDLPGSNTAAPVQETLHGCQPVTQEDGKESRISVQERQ
Test [4] addresses T1, human CD40 on cells. The source holds these as a separate data set.
The target of test [5] is T1, human CD40 on cells. The source holds these as a separate data set.

B1: CFZ533 (antibody, human IgG1, kappa, N297A)
heavy: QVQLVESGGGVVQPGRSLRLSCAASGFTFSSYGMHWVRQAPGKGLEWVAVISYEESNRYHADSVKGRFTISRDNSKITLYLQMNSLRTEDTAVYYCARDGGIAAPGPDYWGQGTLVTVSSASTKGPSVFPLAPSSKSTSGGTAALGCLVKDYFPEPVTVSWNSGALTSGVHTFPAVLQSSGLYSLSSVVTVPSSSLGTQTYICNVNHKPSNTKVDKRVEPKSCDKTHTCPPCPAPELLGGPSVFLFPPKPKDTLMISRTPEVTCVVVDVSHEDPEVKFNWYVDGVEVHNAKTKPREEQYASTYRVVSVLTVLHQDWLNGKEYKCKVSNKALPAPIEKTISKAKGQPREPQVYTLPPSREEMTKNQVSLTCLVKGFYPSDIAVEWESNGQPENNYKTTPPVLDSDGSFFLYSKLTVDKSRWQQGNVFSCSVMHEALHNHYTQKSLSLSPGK
light: DIVMTQSPLSLTVTPGEPASISCRSSQSLLYSNGYNYLDWYLQKPGQSPQVLISLGSNRASGVPDRFSGSGSGTDFTLKISRVEAEDVGVYYCMQARQTPFTFGPGTKVDIRRTVAAPSVFIFPPSDEQLKSGTASVVCLLNNFYPREAKVQWKVDNALQSGNSQESVTEQDSKDSTYSLSSTLTLSKADYEKHKVYACEVTHQGLSSPVTKSFNRGEC
On to B1, for which the “Inhibition of rCD154-induced proliferation (IC50 PBMCs), rhesus” value in test [1] is 0.026 µg/ml and 0.18 µM. Also, the “Inhibition of rCD154-induced proliferation (IC50 PBMCs), cynomolgus” value in test [2] is 0.01 µg/ml and 0.07 µM. Moreover, in the test with human CD40 on cells [3], the “Inhibition of rCD154-induced proliferation (IC50 PBMCs), human” value is 0.017 µg/ml and 0.12 µM. Moreover, in the test with human CD40 on cells [4], the “IC50, inhibition of rCD154-induced TNF production by primary monocyte-derived dendritic cells” value is 0.04 µg/ml and 0.27 nM; the “IC50, inhibition of rCD154-induced proliferation of human PBMCs” value was 0.12 nM; the “IC50, inhibition of rCD154-induced proliferation of human whole blood cultures” value is 0.024 µg/ml and 0.16 nM; the “IC50, inhibition of rCD154-induced proliferation of purified human tonsillar B cells” value is 0.071 µg/ml and 0.47 nM. For the same molecule, in the test with human CD40 on cells [5], the “IC50 (read off the curve): inhibition of rCD154-induced CD69 expression on CD20pos B cells, human whole blood” value is about 0.1 µg/mL.
